The source of these data is the supplement of paper PMC5998384.

For data set [1], the system named is HeLa Kyoto. Kind of data set: solubility in G1/S (NP-40 vs SDS abundance) (log2 ratio); higher = more soluble. The following applies: cell cycle stage: G1/S.
Data set [2] concerns HeLa Kyoto. Kind of data set: melting temperature (median over replicates), in situ; higher = more thermally stable.
For data set [3], the system named is HeLa Kyoto. Kind of data set: solubility change mitosis vs G1/S (difference of NP-40 vs SDS log2 ratios) (log2 ratio difference); higher = more soluble in mitosis.
For data set [4], the system named is HeLa Kyoto. Kind of data set: thermal stability score vs G1/S (z-score of summed log2 fold changes over temperatures); higher = more thermally stable than in G1/S.
[5] abbreviates: cell cycle stage: early G1 (4.5 h after nocodazole release).
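Wherever melting temperature (median over replicates), in situ is given: HeLa Kyoto cells synchronized by double thymidine or nocodazole block, proteins quantified by TMT10plex mass spectrometry, three independent biological replicates.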
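Wherever solubility change mitosis vs G1/S (difference of NP-40 vs SDS log2 ratios) is given: synchronized HeLa Kyoto cells (double thymidine block for G1/S, nocodazole release for mitosis), protein amounts in NP-40 versus SDS lysates quantified by mass spectrometry, three biological replicates.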
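Wherever solubility in G1/S (NP-40 vs SDS abundance) is given: HeLa Kyoto cells arrested at G1/S by double thymidine block, proteins quantified by TMT10plex mass spectrometry in mild NP-40 versus SDS extracts, three biological replicates.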
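Wherever thermal stability score vs G1/S (z-score of summed log2 fold changes over temperatures) is given: synchronized HeLa Kyoto cells, proteins quantified by TMT10plex mass spectrometry, three biological replicates, mitosis taken 0.5 h after nocodazole release, G1/S directly after double thymidine block.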

On to “MVEKEEAGGGISEEEAAQYDRQIRLWGLEAQKRLRASRVLLVGLKGLGAEIAKNLILAGVKGLTMLDHEQVTPEDPGAQFLIRTGSVGRNRAEASLERAQNLNPMVDVKVDTEDIEKKPESFFTQFDAVCLTCCSRDVIVKVDQICHKNSIKFFTGDVFGYHGYTFANLGEHEFVEEKTKVAKVSQGVEDGPDTKRAKLDSSETTMVKKKVVFCPVKEALEVDWSSEKAKAALKRTTSDYFLLQVLLKFRTDKGRDPSSDTYEEDSELLLQIRNDVLDSLGISPDLLPEDFVRYCFSEMAPVCAVVGGILAQEIVKALSQRDPPHNNFFFFDGMKGNGIVECLGPK [SAE1]”, for which, in data set [1], the “solubility in G1/S (log2)” value came out at 0.0883. Moreover, the melting temperature in data set [2] (cell cycle stage: G1/S) worked out at 52.4 °C; in data set [2] (cell cycle stage: mitosis), 52.3 °C. The “solubility change mitosis (log2)” value in data set [3] is -0.153. For the same sequence, the thermal stability score stood at 0.0359 in data set [4] (setting [5]) and 0.096 in data set [4] (cell cycle stage: mitosis).
Take “MVGEEKMSLRNRLSKSRENPEEDEDQRNPAKESLETPSNGRIDIKQLIAKKIKLTAEAEELKPFFMKEVGSHFDDFVTNLIEKSASLDNGGCALTTFSVLEGEKNNHRAKDLRAPPEQGKIFIARRSLLDELLEVDHIRTIYHMFIALLILFILSTLVVDYIDEGRLVLEFSLLSYAFGKFPTVVWTWWIMFLSTFSVPYFLFQHWATGYSKSSHPLIRSLFHGFLFMIFQIGVLGFGPTYVVLAYTLPPASRFIIIFEQIRFVMKAHSFVRENVPRVLNSAKEKSSTVPIPTVNQYLYFLFAPTLIYRDSYPRNPTVRWGYVAMKFAQVFGCFFYVYYIFERLCAPLFRNIKQEPFSARVLVLCVFNSILPGVLILFLTFFAFLHCWLNAFAEMLRFGDRMFYKDWWNSTSYSNYYRTWNVVVHDWLYYYAYKDFLWFFSKRFKSAAMLAVFAVSAVVHEYALAVCLSFFYPVLFVLFMFFGMAFNFIVNDSRKKPIWNVLMWTSLFLGNGVLLCFYSQEWYARQHCPLKNPTFLDYVRPRSWTCRYVF [SOAT1]”: the “solubility in G1/S (log2)” value in data set [1] was -0.292. Moreover, the melting temperature in data set [2] (cell cycle stage: G1/S) worked out at 52.2 °C; in data set [2] (cell cycle stage: mitosis), 52 °C. Also, in data set [3], the “solubility change mitosis (log2)” value was -0.0778. For the same sequence, the results for the thermal stability score in data set [4] (setting [5]) and in data set [4] (cell cycle stage: mitosis) were 0.192 and 0.0734, respectively.
In the case of “MVGRNSAIAAGVCGALFIGYCIYFDRKRRSDPNFKNRLRERRKKQKLAKERAGLSKLPDLKDAEAVQKFFLEEIQLGEELLAQGEYEKGVDHLTNAIAVCGQPQQLLQVLQQTLPPPVFQMLLTKLPTISQRIVSAQSLAEDDVE [TOMM20]”, in data set [1], the “solubility in G1/S (log2)” value came to 0.747. For the same sequence, the melting temperature in data set [2] (cell cycle stage: G1/S) amounted to 49.7 °C; in data set [2] (cell cycle stage: mitosis), 51.7 °C. The “solubility change mitosis (log2)” value in data set [3] was 0.294. Moreover, the thermal stability score is -2.96 in data set [4] (setting [5]) and -4.96 in data set [4] (cell cycle stage: mitosis).
Consider “MVGSLNCIVAVSQNMGIGKNGDLPWPPLRNEFRYFQRMTTTSSVEGKQNLVIMGKKTWFSIPEKNRPLKGRINLVLSRELKEPPQGAHFLSRSLDDALKLTEQPELANKVDMVWIVGGSSVYKEAMNHPGHLKLFVTRIMQDFESDTFFPEIDLEKYKLLPEYPGVLSDVQEEKGIKYKFEVYEKND [DHFR]”, for which the “solubility in G1/S (log2)” value in data set [1] came to 0.294. Moreover, the figures for the melting temperature in data set [2] (cell cycle stage: G1/S) and in data set [2] (cell cycle stage: mitosis) were 47.9 °C and 49.1 °C, respectively. Further, the “solubility change mitosis (log2)” value in data set [3] was -0.139. For the same sequence, the thermal stability score in data set [4] (setting [5]) was determined as 1.37; in data set [4] (cell cycle stage: mitosis), 2.73.
Regarding “MVHCSCVLFRKYGNFIDKLRLFTRGGSGGMGYPRLGGEGGKGGDVWVVAQNRMTLKQLKDRYPRKRFVAGVGANSKISALKGSKGKDCEIPVPVGISVTDENGKIIGELNKENDRILVAQGGLGGKLLTNFLPLKGQKRIIHLDLKLIADVGLVGFPNAGKSSLLSCVSHAKPAIADYAFTTLKPELGKIMYSDFKQISVADLPGLIEGAHMNKGMGHKFLKHIERTRQLLFVVDISGFQLSSHTQYRTAFETIILLTKELELYKEELQTKPALLAVNKMDLPDAQDKFHELMSQLQNPKDFLHLFEKNMIPERTVEFQHIIPISAVTGEGIEELKNCIRKSLDEQANQENDALHKKQLLNLWISDTMSSTEPPSKHAVTTSKMDII [GTPBP10]”, in data set [1], the “solubility in G1/S (log2)” value worked out at 0.217. For the same sequence, the values for the melting temperature in data set [2] (cell cycle stage: G1/S) and in data set [2] (cell cycle stage: mitosis) were 49.4 °C and 50.8 °C, respectively. Besides, in data set [3], the “solubility change mitosis (log2)” value worked out at 0.0276. The thermal stability score in data set [4] (setting [5]) was -0.944; in data set [4] (cell cycle stage: mitosis) it was 0.176.
Turning to “MVIRVYIASSSGSTAIKKKQQDVLGFLEANKIGFEEKDIAANEENRKWMRENVPENSRPATGYPLPPQIFNESQYRGDYDAFFEARENNAVYAFLGLTAPPGSKEAEVQAKQQA [SH3BGRL]”, the “solubility in G1/S (log2)” value in data set [1] stood at 0.375. Further, the melting temperature in data set [2] (cell cycle stage: G1/S) was 53.2 °C; in data set [2] (cell cycle stage: mitosis), 53 °C. In data set [3], the “solubility change mitosis (log2)” value is -0.0943. Further, the thermal stability score in data set [4] (setting [5]) is -0.605; in data set [4] (cell cycle stage: mitosis), -2.76.
